Reference: doi:10.1101/2022.04.08.487678 (bioRxiv, 2022)

Molecular target: CcdB, biotinylated (E. coli (F-plasmid), UniProt P62554 1-101)
Assay: flow cytometry on cells

CcdB, biotinylated, sequence (P62554 whole entry): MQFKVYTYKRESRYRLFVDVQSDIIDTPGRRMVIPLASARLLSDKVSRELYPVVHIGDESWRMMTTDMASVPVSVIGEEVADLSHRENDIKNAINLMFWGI

B1: CcdA wild type, displayed on the yeast surface (natural protein)
chain: MKQRITVTVDSDSYQLLKAYDVNISGLVSTTMQNEARRLRAERWKAENQEGMAEVARFIEMNGSFADENRDW
Kd: 0.25 ± 0.05 nM
